Measurements published in publication PMC3176292, “Mutations in Protein-Binding Hot-Spots on the Hub Protein Smad3 Differentially Affect Its Protein Interactions and Smad3-Regulated Gene Expression” (PLoS ONE, 2011).

T1: SARA Smad-binding domain (amino acids 665–721) on the 3xFlag-thioredoxin scaffold (UniProt O95405 767-823)
T1 construct: SARA, amino acids 665–721; cloned into the unique RsrII site of pCI-3xFLAG-Trx; also called SARA aa665–721; TrxSARA; source: HEK-293, transfected, in lysate
T1 sequence (looked up): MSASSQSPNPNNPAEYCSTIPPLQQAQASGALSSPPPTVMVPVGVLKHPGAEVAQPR

T2: Ski Smad-binding domain (amino acids 2–56) on the 3xFlag-thioredoxin scaffold (UniProt P12755 2-56)
T2 construct: Ski, amino acids 2–56; cloned into the unique RsrII site of pCI-3xFLAG-Trx; also called Ski aa2–56; TrxSki; source: HEK-293, transfected, in lysate
T2 sequence (looked up): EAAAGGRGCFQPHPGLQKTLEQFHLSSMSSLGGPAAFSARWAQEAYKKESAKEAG

T3: Flag-Smad4, full length (UniProt Q13485 1-552)
T3 construct: Smad4; plasmid pCMV5-Flag-Smad4 (from J. Massagué); also called Smad4 FL; source: HEK-293, transfected, in lysate
T3 sequence (looked up): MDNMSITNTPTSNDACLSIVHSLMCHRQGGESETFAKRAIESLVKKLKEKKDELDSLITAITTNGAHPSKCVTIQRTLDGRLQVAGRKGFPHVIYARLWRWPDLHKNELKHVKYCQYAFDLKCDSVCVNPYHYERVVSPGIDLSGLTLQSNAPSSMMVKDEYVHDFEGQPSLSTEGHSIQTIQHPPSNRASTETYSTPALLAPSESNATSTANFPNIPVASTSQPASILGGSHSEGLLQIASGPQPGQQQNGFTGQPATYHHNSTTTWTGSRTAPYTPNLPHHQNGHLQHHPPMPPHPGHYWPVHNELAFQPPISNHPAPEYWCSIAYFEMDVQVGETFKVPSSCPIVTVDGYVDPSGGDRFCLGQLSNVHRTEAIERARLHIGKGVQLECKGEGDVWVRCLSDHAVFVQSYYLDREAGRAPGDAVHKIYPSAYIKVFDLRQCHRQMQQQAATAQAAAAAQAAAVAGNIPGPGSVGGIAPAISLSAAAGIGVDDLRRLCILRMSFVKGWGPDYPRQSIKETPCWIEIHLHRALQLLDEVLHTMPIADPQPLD


How the values were obtained:
Details in all cases: partners not purified
[1] = target: T1, SARA Smad-binding domain (amino acids …); test: co-IP; LUMIER: Renilla luciferase-Smad3 and Flag-tagged partner co-expressed with constitutively active Alk5 in HEK-293; Flag protein captured from cleared lysate (TNE: 10 mM Tris-HCl pH 7.8, 150 mM NaCl, 1 mM EDTA, 1% Igepal CA-630) on anti-Flag 96-well plates, 2 h at 4 °C; co-precipitated Renilla luciferase activity, TrxGA background subtracted, percent of wild-type Smad3
[2] = target: T4, Smurf2 Smad-binding domain (amino acids 252–330) on the Flag-thioredoxin scaffold (UniProt Q9HAU4 252-330); test: as above
T4 construct: Smurf2, amino acids 252–330; also called Smurf2 aa252–330; TrxSmurf2; source: HEK-293, transfected, in lysate

[3] = target: T2, Ski Smad-binding domain (amino acids …); test: as above
[4] = target: T1, SARA Smad-binding domain (amino acids …); test: co-IP; LUMIER as a1 but without co-expression of the activated Alk5 kinase (Smad3 not phosphorylated); percent of phosphorylated wild-type Smad3
[5] = target: T3, Flag-Smad4, full length; test: co-IP; LUMIER: Renilla luciferase-Smad3 and Flag-tagged partner co-expressed with constitutively active Alk5 in HEK-293; Flag protein captured from cleared lysate (TNE: 10 mM Tris-HCl pH 7.8, 150 mM NaCl, 1 mM EDTA, 1% Igepal CA-630) on anti-Flag 96-well plates, 2 h at 4 °C; co-precipitated Renilla luciferase activity, TrxGA background subtracted, percent of wild-type Smad3

T4 sequence (Q9HAU4 252-330): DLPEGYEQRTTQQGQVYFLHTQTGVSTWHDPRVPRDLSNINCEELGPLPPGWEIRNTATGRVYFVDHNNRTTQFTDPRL

| percent binding relative to wild-type Smad3 [1] [%] | percent binding relative to wild-type Smad3 [2] [%] | percent binding relative to wild-type Smad3 [3] [%] | percent binding relative to wild-type Smad3 [4] [%] | percent binding relative to wild-type Smad3 [5] [%] | Binder |
| --- | --- | --- | --- | --- | --- |
| 100 | 100 | 100 | – | – | Renilla luciferase-Smad3 wild type, co-expressed with constitutively active Alk5 (phosphorylated Smad3) (natural protein, UniProt P84022 1-425, looked up, phosphorylated by the co-expressed activated Alk5 kinase (sites not given), Smad3; plasmid pCMV5-hRLuc-Smad3 (from J. Wrana); also called Smad3 WT+Alk5; Renilla-Smad3; source: HEK-293, transfected together with constitutively active Alk5, in lysate) MSSILPFTPPIVKRLLGWKKGEQNGQEEKWCEKAVKSLVKKLKKTGQLDELEKAITTQNVNTKCITIPRSLDGRLQVSHRKGLPHVIYCRLWRWPDLHSHHELRAMELCEFAFNMKKDEVCVNPYHYQRVETPVLPPVLVPRHTEIPAEFPPLDDYSHSIPENTNFPAGIEPQSNIPETPPPGYLSEDGETSDHQMNHSMDAGSPNLSPNPMSPAHNNLDLQPVTYCEPAFWCSISYYELNQRVGETFHASQPSMTVDGFTDPSNSERFCLGLLSNVNRNAAVELTRRHIGRGVRLYYIGGEVFAECLSDSAIFVQSPNCNQRYGWHPATVCKIPPGCNLKIFNNQEFAALLAQSVNQGFEAVYQLTRMCTIRMSFVKGWGAEYRRQTVTSTPCWIELHLNGPLQWLDKVLTQMGSPSIRCSSVS |
| – | – | – | 78 | – | Renilla luciferase-Smad3 wild type, without Alk5 (not phosphorylated) (natural protein, UniProt P84022 1-425, looked up, Smad3; also called Smad3 WT, No Alk5; source: HEK-293, transfected without Alk5, in lysate) MSSILPFTPPIVKRLLGWKKGEQNGQEEKWCEKAVKSLVKKLKKTGQLDELEKAITTQNVNTKCITIPRSLDGRLQVSHRKGLPHVIYCRLWRWPDLHSHHELRAMELCEFAFNMKKDEVCVNPYHYQRVETPVLPPVLVPRHTEIPAEFPPLDDYSHSIPENTNFPAGIEPQSNIPETPPPGYLSEDGETSDHQMNHSMDAGSPNLSPNPMSPAHNNLDLQPVTYCEPAFWCSISYYELNQRVGETFHASQPSMTVDGFTDPSNSERFCLGLLSNVNRNAAVELTRRHIGRGVRLYYIGGEVFAECLSDSAIFVQSPNCNQRYGWHPATVCKIPPGCNLKIFNNQEFAALLAQSVNQGFEAVYQLTRMCTIRMSFVKGWGAEYRRQTVTSTPCWIELHLNGPLQWLDKVLTQMGSPSIRCSSVS |
| 61 | 86 | 4 | – | 132 | Renilla luciferase-Smad3 QPSMT/SE mutant (residues 252–256 and 266–267 changed to the Smad1 equivalents STSVL/NKN) (natural protein, UniProt P84022 1-425, looked up, Smad3 with two stretches replaced by those of Smad1; source plasmid pcDNA3-Flag-Smad3(STSVL/NKN) from K. Miyazono; assayed as Renilla fusion; also called Smad3(STSVL/NKN); Smad1/3 chimeric protein; source: HEK-293, transfected together with constitutively active Alk5, in lysate) MSSILPFTPPIVKRLLGWKKGEQNGQEEKWCEKAVKSLVKKLKKTGQLDELEKAITTQNVNTKCITIPRSLDGRLQVSHRKGLPHVIYCRLWRWPDLHSHHELRAMELCEFAFNMKKDEVCVNPYHYQRVETPVLPPVLVPRHTEIPAEFPPLDDYSHSIPENTNFPAGIEPQSNIPETPPPGYLSEDGETSDHQMNHSMDAGSPNLSPNPMSPAHNNLDLQPVTYCEPAFWCSISYYELNQRVGETFHASSTSVLVDGFTDPSNNKNRFCLGLLSNVNRNAAVELTRRHIGRGVRLYYIGGEVFAECLSDSAIFVQSPNCNQRYGWHPATVCKIPPGCNLKIFNNQEFAALLAQSVNQGFEAVYQLTRMCTIRMSFVKGWGAEYRRQTVTSTPCWIELHLNGPLQWLDKVLTQMGSPSIRCSSVS |
